Key:
[1] = biological target: T1, human cMet expressed on 3T3 cells (human, UniProt P08581 25-1390); test: whole cell phage ELISA, 3T3 human cMet vs 3T3
T1 construct: whole, on cells; cells fixed with glutaraldehyde; also called cell surface-expressed human cMet; 3T3 cells that over-express human cMet
In short: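 Bound phage was detected with an HRP-conjugated anti-M13 antibody after PBST washes. The cells were cMet-over-expressing 3T3, read against plain 3T3.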

[2] = biological target: T2, cMet-Fc fusion protein (extracellular domain of the cMet receptor expressed as an Fc-fusion protein) (human, UniProt P08581 25-932); test: phage ELISA, cMet-Fc vs TRAIL-Fc
T2 construct: extracellular domain; also called soluble cMet-Fc-fusion protein; soluble cMet receptor; not shown: Fc part
In short: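 Specificity check: phage displaying peptides incubated 2 h at room temperature on wells coated with 0.5 μg/mL cMet-Fc versus TRAIL-Fc, after blocking with 3% BSA/PBST. HRP-anti-M13 antibody detected binding phage.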

[3] = biological target: T2, cMet-Fc fusion protein (extracellular …); test: phage ELISA on cMet-Fc, competitor HGF 100 ng/mL
In short: (§1)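 Plates coated with 0.5 μg/mL cMet-Fc, with TRAIL-Fc as background, then blocked with 3% BSA. Bound phage detected with HRP anti-M13 antibody.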

[4] = biological target: T2, cMet-Fc fusion protein (extracellular …); test: phage ELISA on cMet-Fc, competitor HGF 500 ng/mL
In short: as §1

T2 sequence (P08581 25-932): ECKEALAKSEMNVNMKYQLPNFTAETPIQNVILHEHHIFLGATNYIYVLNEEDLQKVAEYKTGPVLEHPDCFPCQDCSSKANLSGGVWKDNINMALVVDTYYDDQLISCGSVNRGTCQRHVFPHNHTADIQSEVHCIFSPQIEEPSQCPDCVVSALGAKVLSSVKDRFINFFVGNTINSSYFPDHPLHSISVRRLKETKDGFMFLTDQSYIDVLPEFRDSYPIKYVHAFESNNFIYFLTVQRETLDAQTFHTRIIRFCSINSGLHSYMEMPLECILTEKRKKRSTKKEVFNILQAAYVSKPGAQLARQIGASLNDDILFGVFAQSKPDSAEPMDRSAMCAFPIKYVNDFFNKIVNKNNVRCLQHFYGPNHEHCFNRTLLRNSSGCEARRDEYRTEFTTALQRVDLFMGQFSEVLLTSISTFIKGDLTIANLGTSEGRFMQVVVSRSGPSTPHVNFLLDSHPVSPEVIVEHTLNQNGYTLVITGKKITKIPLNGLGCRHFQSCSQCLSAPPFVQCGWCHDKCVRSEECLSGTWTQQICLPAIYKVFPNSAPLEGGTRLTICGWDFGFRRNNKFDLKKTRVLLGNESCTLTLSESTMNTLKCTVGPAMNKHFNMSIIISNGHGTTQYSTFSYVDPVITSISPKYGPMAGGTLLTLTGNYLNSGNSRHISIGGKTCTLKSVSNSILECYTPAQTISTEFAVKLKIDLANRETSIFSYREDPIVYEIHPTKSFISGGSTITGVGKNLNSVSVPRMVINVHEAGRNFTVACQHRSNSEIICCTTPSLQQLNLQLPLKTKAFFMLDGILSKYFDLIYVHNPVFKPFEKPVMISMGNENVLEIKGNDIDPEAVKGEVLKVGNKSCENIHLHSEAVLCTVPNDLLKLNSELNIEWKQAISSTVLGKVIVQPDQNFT
T1 sequence (P08581 25-1390): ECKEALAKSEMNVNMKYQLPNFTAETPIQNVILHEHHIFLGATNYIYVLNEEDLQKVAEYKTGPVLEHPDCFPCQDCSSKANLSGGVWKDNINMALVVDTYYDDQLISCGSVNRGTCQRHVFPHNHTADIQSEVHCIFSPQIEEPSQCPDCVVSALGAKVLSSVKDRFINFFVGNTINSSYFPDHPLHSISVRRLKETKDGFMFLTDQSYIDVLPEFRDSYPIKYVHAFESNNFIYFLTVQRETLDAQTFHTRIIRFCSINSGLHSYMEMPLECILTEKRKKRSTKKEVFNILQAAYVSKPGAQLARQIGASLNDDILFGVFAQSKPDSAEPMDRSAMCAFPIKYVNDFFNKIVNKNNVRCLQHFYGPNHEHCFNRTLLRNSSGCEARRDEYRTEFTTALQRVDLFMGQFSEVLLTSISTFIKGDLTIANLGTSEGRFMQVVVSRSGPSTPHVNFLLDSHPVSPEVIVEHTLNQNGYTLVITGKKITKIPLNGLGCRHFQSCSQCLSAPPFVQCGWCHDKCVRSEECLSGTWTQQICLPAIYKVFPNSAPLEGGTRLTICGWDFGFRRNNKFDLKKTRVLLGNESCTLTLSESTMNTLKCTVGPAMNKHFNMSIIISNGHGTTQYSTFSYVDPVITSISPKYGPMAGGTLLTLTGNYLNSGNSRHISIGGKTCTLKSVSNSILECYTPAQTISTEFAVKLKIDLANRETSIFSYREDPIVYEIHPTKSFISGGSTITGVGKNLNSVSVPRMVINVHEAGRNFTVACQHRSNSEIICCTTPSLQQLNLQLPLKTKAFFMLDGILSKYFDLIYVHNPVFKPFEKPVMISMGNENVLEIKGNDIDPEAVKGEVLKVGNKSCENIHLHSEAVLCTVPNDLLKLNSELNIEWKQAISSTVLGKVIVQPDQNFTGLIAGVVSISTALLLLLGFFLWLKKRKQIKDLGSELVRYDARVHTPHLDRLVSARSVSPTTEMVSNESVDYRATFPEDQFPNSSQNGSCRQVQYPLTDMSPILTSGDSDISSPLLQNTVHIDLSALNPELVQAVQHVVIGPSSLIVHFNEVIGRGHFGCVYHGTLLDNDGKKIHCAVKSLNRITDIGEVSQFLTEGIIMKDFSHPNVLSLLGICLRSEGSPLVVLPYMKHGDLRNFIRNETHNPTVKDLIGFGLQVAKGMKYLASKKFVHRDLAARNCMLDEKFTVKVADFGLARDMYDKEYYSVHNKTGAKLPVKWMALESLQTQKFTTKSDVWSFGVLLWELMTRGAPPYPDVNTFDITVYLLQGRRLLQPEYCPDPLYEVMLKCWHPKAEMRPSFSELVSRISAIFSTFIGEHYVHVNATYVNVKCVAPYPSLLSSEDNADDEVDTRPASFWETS

B1: 557-A12 peptide-displaying phage (SEQ ID NO: 372) (peptide)
peptide: GSTMSCWRWGRDAYSCNQMAP
WC ELISA (fold over background) [1]: 1.37 fold | Protein ELISA (fold over background) [2]: 4.6 fold | % of binding in the absence of HGF [3]: 87% | % of binding in the absence of HGF [4]: 62%

B2: 465-A03 peptide-displaying phage (SEQ ID NO: 373) (peptide)
peptide: GSSQICAVYLDDTHNCERHAP
WC ELISA (fold over background) [1]: 1.3 fold | Protein ELISA (fold over background) [2]: 4 fold | % of binding in the absence of HGF [3]: 33% | % of binding in the absence of HGF [4]: 17%

B3: 446-E12 peptide-displaying phage (SEQ ID NO: 374) (peptide)
peptide: GSSHCNQMITPWQNCGMRAP
WC ELISA (fold over background) [1]: 1.37 fold | Protein ELISA (fold over background) [2]: 3.3 fold | % of binding in the absence of HGF [3]: 73% | % of binding in the absence of HGF [4]: 83%

B4: 445-E06 peptide-displaying phage (SEQ ID NO: 375) (peptide)
peptide: GSSARCDELINDFHSCLVMAP
WC ELISA (fold over background) [1]: 1.33 fold | Protein ELISA (fold over background) [2]: 4.3 fold | % of binding in the absence of HGF [3]: 83% | % of binding in the absence of HGF [4]: 73%

B5: 452-A03 peptide-displaying phage (SEQ ID NO: 376) (peptide)
peptide: GSRFHCWQGDLMQTYCMPMAP
WC ELISA (fold over background) [1]: 1.3 fold | Protein ELISA (fold over background) [2]: 3 fold | % of binding in the absence of HGF [3]: 140% | % of binding in the absence of HGF [4]: 112%

B6: 465-C06 peptide-displaying phage (SEQ ID NO: 377) (peptide)
peptide: GSQNNCEYGSRGSSFCLAMAP
WC ELISA (fold over background) [1]: 1.23 fold | Protein ELISA (fold over background) [2]: 6.4 fold | % of binding in the absence of HGF [3]: 184% | % of binding in the absence of HGF [4]: 104%

B7: 441-H01 peptide-displaying phage (SEQ ID NO: 378) (peptide)
peptide: GSMNMCDTTDEISPTCHPSAP
WC ELISA (fold over background) [1]: 1.4 fold | Protein ELISA (fold over background) [2]: 3.6 fold | % of binding in the absence of HGF [3]: 91% | % of binding in the absence of HGF [4]: 69%

B8: 570-E07 peptide-displaying phage (SEQ ID NO: 012) (peptide)
peptide: AGAWNCEYPTFICEWQGA
WC ELISA (fold over background) [1]: 1.27 fold | Protein ELISA (fold over background) [2]: 4.5 fold | % of binding in the absence of HGF [3]: 81% | % of binding in the absence of HGF [4]: 71%

B9: 443-D04 peptide-displaying phage (SEQ ID NO: 379) (peptide)
peptide: GSMLGCLFEHQNKYDCYVLAP
WC ELISA (fold over background) [1]: 1.43 fold | Protein ELISA (fold over background) [2]: 3.2 fold | % of binding in the absence of HGF [3]: 69% | % of binding in the absence of HGF [4]: 73%

B10: 445-G12 peptide-displaying phage (SEQ ID NO: 380) (peptide)
peptide: GSLYRCLGEASPTPPCAYEAP
WC ELISA (fold over background) [1]: 1.37 fold | Protein ELISA (fold over background) [2]: 4 fold | % of binding in the absence of HGF [3]: 85% | % of binding in the absence of HGF [4]: 52%

B11: 442-E03 peptide-displaying phage (SEQ ID NO: 381) (peptide)
peptide: GSGMGCHQVNISTGDCAEDAP
WC ELISA (fold over background) [1]: 1.43 fold | Protein ELISA (fold over background) [2]: 3.9 fold | % of binding in the absence of HGF [3]: 130% | % of binding in the absence of HGF [4]: 81%

B12: 453-A05 peptide-displaying phage (SEQ ID NO: 382) (peptide)
peptide: GSGDPCSPGPSINGHCSVMAP
WC ELISA (fold over background) [1]: 1.33 fold | Protein ELISA (fold over background) [2]: 4.5 fold | % of binding in the absence of HGF [3]: 51% | % of binding in the absence of HGF [4]: 28%

B13: 445-E07 peptide-displaying phage (SEQ ID NO: 383) (peptide)
peptide: GSFWNCTTDLGAMSDCGFFAP
WC ELISA (fold over background) [1]: 1.37 fold | Protein ELISA (fold over background) [2]: 3.1 fold | % of binding in the absence of HGF [3]: 82% | % of binding in the absence of HGF [4]: 64%

B14: 451-B12 peptide-displaying phage (SEQ ID NO: 384) (peptide)
peptide: GSFTACNKTSTTRQPCNPYAP
WC ELISA (fold over background) [1]: 1.37 fold | Protein ELISA (fold over background) [2]: 3.1 fold | % of binding in the absence of HGF [3]: 61% | % of binding in the absence of HGF [4]: 27%

B15: 465-B07 peptide-displaying phage (SEQ ID NO: 385) (peptide)
peptide: GSELFCFYHHQGYEGCDVLAP
WC ELISA (fold over background) [1]: 1.27 fold | Protein ELISA (fold over background) [2]: 4.8 fold | % of binding in the absence of HGF [3]: 111% | % of binding in the absence of HGF [4]: 79%

— US20120039802A1 (published 2012)
